US20120094899A1 (Takeda / Millennium, published 2012)
Non-standard residues stand in square brackets, D forms with d. No end group written: not given here. *: point of attachment. Acetyl(2-(piperazin-1-yl)) = O=C(CN1CCNCC1)*; PEG 20 kDa = methoxypolyethylene glycol 20k; 2Nal = N[C@@H](Cc1ccc2ccccc2c1)C(=O)O; Arg(Me) = CNC(=N)NCCC[C@H](N)C(=O)O; NMeY = CN[C@@H](Cc1ccc(O)cc1)C(=O)O; NMeR = CN[C@@H](CCCNC(=N)N)C(=O)O; Cha = N[C@@H](CC1CCCCC1)C(=O)O; NMeL = CN[C@@H](CC(C)C)C(=O)O; NMeA = CN[C@@H](C)C(=O)O; βAla = NCCC(=O)O

T1: Human FM3 (human, UniProt Q9HB89 1-426)
T1 construct: whole, on cells; Assayed as the membrane fraction of FM3-expressing CHO cells (1.2 mg/mL protein); also called NMUR1; FM3 receptor
T1 sequence (looked up): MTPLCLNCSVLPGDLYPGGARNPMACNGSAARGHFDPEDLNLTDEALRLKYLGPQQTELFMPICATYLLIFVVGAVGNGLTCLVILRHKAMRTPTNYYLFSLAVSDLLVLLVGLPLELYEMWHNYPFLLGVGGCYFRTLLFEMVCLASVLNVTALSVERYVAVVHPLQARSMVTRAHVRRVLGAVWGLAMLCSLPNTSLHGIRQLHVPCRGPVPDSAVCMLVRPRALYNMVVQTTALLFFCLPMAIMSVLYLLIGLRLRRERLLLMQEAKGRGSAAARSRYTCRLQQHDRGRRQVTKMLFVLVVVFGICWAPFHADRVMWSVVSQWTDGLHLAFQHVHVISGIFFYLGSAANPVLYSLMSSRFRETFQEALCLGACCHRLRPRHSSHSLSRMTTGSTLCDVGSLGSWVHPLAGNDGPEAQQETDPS

T2: Human FM3 (human), Q9HB89
T2 chain: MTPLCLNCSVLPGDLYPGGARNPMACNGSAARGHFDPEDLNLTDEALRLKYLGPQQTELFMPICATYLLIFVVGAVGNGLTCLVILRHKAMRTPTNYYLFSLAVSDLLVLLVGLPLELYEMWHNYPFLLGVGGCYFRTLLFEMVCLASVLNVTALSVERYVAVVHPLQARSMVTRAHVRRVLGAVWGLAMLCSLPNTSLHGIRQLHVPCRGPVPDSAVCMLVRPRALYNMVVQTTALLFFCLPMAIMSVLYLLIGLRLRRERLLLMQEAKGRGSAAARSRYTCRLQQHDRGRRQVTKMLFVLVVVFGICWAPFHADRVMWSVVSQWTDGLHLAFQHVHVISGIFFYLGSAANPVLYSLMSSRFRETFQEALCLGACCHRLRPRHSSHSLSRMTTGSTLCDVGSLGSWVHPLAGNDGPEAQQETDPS

B1: NpipAc0,Trp2,Ala6-NMU-8 (Compound 20) (peptide)
peptide: {Acetyl(2-(piperazin-1-yl))}-YWLFRARN-NH2
SMILES: CC(C)C[C@H](NC(=O)[C@H](Cc1c[nH]c2ccccc12)NC(=O)[C@H](Cc1ccc(O)cc1)NC(=O)CN1CCNCC1)C(=O)N[C@@H](Cc1ccccc1)C(=O)N[C@@H](CCCNC(=N)N)C(=O)N[C@@H](C)C(=O)N[C@@H](CCCNC(=N)N)C(=O)N[C@@H](CC(N)=O)C(N)=O
notes: also called 2-(piperazin-1-yl)acetyl-[Trp2,Ala6]-NMU8
B2: PEG30k-NH-β-Ala0,Cha3-NMU-8 (Compound F) (peptide)
peptide: {mPEG 30 kDa-βAla}-YF[Cha]FRPRN-NH2
notes: X stands for Cha; also called PEG-NH-β-Ala0,Cha3-NMU-8
B3: β-Ala0,Arg3-NMU-8 (Compound 3) (peptide)
peptide: [βAla]YFRFRPRN-NH2
modifications: N-terminus assumed
SMILES: N=C(N)NCCC[C@H](NC(=O)[C@H](Cc1ccccc1)NC(=O)[C@H](Cc1ccc(O)cc1)NC(=O)CCN)C(=O)N[C@@H](Cc1ccccc1)C(=O)N[C@@H](CCCNC(=N)N)C(=O)N1CCC[C@H]1C(=O)N[C@@H](CCCNC(=N)N)C(=O)N[C@@H](CC(N)=O)C(N)=O
B4: β-Ala0,Tyr2-NMU-8 (Compound 5) (peptide)
peptide: [βAla]YYLFRPRN-NH2
modifications: N-terminus assumed
SMILES: CC(C)C[C@H](NC(=O)[C@H](Cc1ccc(O)cc1)NC(=O)[C@H](Cc1ccc(O)cc1)NC(=O)CCN)C(=O)N[C@@H](Cc1ccccc1)C(=O)N[C@@H](CCCNC(=N)N)C(=O)N1CCC[C@H]1C(=O)N[C@@H](CCCNC(=N)N)C(=O)N[C@@H](CC(N)=O)C(N)=O
notes: also called β-Ala0,Try2-NMU-8
B5: β-Ala0,Gln3-NMU-8 (Compound 2) (peptide)
peptide: [βAla]YFQFRPRN-NH2
modifications: N-terminus assumed
SMILES: N=C(N)NCCC[C@H](NC(=O)[C@@H]1CCCN1C(=O)[C@H](CCCNC(=N)N)NC(=O)[C@H](Cc1ccccc1)NC(=O)[C@H](CCC(N)=O)NC(=O)[C@H](Cc1ccccc1)NC(=O)[C@H](Cc1ccc(O)cc1)NC(=O)CCN)C(=O)N[C@@H](CC(N)=O)C(N)=O
B6: β-Ala0,Val3-NMU-8 (Compound 4) (peptide)
peptide: [βAla]YFVFRPRN-NH2
modifications: N-terminus assumed
SMILES: CC(C)[C@H](NC(=O)[C@H](Cc1ccccc1)NC(=O)[C@H](Cc1ccc(O)cc1)NC(=O)CCN)C(=O)N[C@@H](Cc1ccccc1)C(=O)N[C@@H](CCCNC(=N)N)C(=O)N1CCC[C@H]1C(=O)N[C@@H](CCCNC(=N)N)C(=O)N[C@@H](CC(N)=O)C(N)=O
B7: β-Ala0,Pro1-NMU-8 (Compound 8) (peptide)
peptide: [βAla]PFLFRPRN-NH2
modifications: N-terminus assumed
SMILES: CC(C)C[C@H](NC(=O)[C@H](Cc1ccccc1)NC(=O)[C@@H]1CCCN1C(=O)CCN)C(=O)N[C@@H](Cc1ccccc1)C(=O)N[C@@H](CCCNC(=N)N)C(=O)N1CCC[C@H]1C(=O)N[C@@H](CCCNC(=N)N)C(=O)N[C@@H](CC(N)=O)C(N)=O
B8: β-Ala0,Asp8-NMU-8 (Compound 12) (peptide)
peptide: [βAla]YFLFRPRD-NH2
modifications: N-terminus assumed
SMILES: CC(C)C[C@H](NC(=O)[C@H](Cc1ccccc1)NC(=O)[C@H](Cc1ccc(O)cc1)NC(=O)CCN)C(=O)N[C@@H](Cc1ccccc1)C(=O)N[C@@H](CCCNC(=N)N)C(=O)N1CCC[C@H]1C(=O)N[C@@H](CCCNC(=N)N)C(=O)N[C@@H](CC(=O)O)C(N)=O
B9: β-Ala0,Gln5-NMU-8 (Compound 1) (peptide)
peptide: [βAla]YFLFQPRN-NH2
modifications: N-terminus assumed
SMILES: CC(C)C[C@H](NC(=O)[C@H](Cc1ccccc1)NC(=O)[C@H](Cc1ccc(O)cc1)NC(=O)CCN)C(=O)N[C@@H](Cc1ccccc1)C(=O)N[C@@H](CCC(N)=O)C(=O)N1CCC[C@H]1C(=O)N[C@@H](CCCNC(=N)N)C(=O)N[C@@H](CC(N)=O)C(N)=O
B10: β-Ala0,NMeLeu3,NMeArg7-NMU-8 (Compound 15) (peptide)
peptide: [βAla]YF[NMeL]FRP[NMeR]N-NH2
modifications: N-terminus assumed
SMILES: CC(C)C[C@@H](C(=O)N[C@@H](Cc1ccccc1)C(=O)N[C@@H](CCCNC(=N)N)C(=O)N1CCC[C@H]1C(=O)N(C)[C@@H](CCCNC(=N)N)C(=O)N[C@@H](CC(N)=O)C(N)=O)N(C)C(=O)[C@H](Cc1ccccc1)NC(=O)[C@H](Cc1ccc(O)cc1)NC(=O)CCN
B11: NpipAc0,Phe1,Trp2,Ala6-NMU-8 (Compound 11) (peptide)
peptide: {Acetyl(2-(piperazin-1-yl))}-FWLFRARN-NH2
SMILES: CC(C)C[C@H](NC(=O)[C@H](Cc1c[nH]c2ccccc12)NC(=O)[C@H](Cc1ccccc1)NC(=O)CN1CCNCC1)C(=O)N[C@@H](Cc1ccccc1)C(=O)N[C@@H](CCCNC(=N)N)C(=O)N[C@@H](C)C(=O)N[C@@H](CCCNC(=N)N)C(=O)N[C@@H](CC(N)=O)C(N)=O
notes: also called 2-(piperazin-1-yl)acetyl-[Phe1,Trp2,Ala6]-NMU-8
B12: PEG20k-NpipAc0,Phe1,Trp2,Ala6-NMU-8 (Compound K) (peptide)
peptide: {PEG 20 kDa-Acetyl(2-(piperazin-1-yl))}-FWLFRARN-NH2
notes: also called PEG20k-NPipAc-Phe1, Trp2,Ala6-NMU-8
B13: β-Ala0,Cha3-NMU-8 (Compound 6) (peptide)
peptide: [βAla]YF[Cha]FRPRN-NH2
modifications: N-terminus assumed
SMILES: N=C(N)NCCC[C@H](NC(=O)[C@@H]1CCCN1C(=O)[C@H](CCCNC(=N)N)NC(=O)[C@H](Cc1ccccc1)NC(=O)[C@H](CC1CCCCC1)NC(=O)[C@H](Cc1ccccc1)NC(=O)[C@H](Cc1ccc(O)cc1)NC(=O)CCN)C(=O)N[C@@H](CC(N)=O)C(N)=O
notes: X stands for Cha
B14: NpipAc0,Nal(2)2,NMeAla6-NMU-8 (Compound 22) (peptide)
peptide: {Acetyl(2-(piperazin-1-yl))}-Y[2Nal]LFR[NMeA]RN-NH2
SMILES: CC(C)C[C@H](NC(=O)[C@H](Cc1ccc2ccccc2c1)NC(=O)[C@H](Cc1ccc(O)cc1)NC(=O)CN1CCNCC1)C(=O)N[C@@H](Cc1ccccc1)C(=O)N[C@@H](CCCNC(=N)N)C(=O)N(C)[C@@H](C)C(=O)N[C@@H](CCCNC(=N)N)C(=O)N[C@@H](CC(N)=O)C(N)=O
notes: X stands for Nal(2); also called 2-(piperazin-1-yl)acetyl-[Nal(2)2,NMeAla6]-NMU8
B15: β-Ala0,Arg(Me)7-NMU-8 (Compound 14) (peptide)
peptide: [βAla]YFLFRP[Arg(Me)]N-NH2
modifications: N-terminus assumed
SMILES: CNC(=N)NCCC[C@H](NC(=O)[C@@H]1CCCN1C(=O)[C@H](CCCNC(=N)N)NC(=O)[C@H](Cc1ccccc1)NC(=O)[C@H](CC(C)C)NC(=O)[C@H](Cc1ccccc1)NC(=O)[C@H](Cc1ccc(O)cc1)NC(=O)CCN)C(=O)N[C@@H](CC(N)=O)C(N)=O
B16: PEG20k-NpipAc0,Nal(2)2,NMeAla6-NMU-8 (Compound V) (peptide)
peptide: {mPEG 20 kDa-Acetyl(2-(piperazin-1-yl))}-Y[2Nal]LFR[NMeA]RN-NH2
notes: X stands for Nal(2); also called PEG20k-NpipAc-Nal(2)2,NMeAla6-NMU8

Tests used:
human TGR1 = target: T3, human TGR1 (human, UniProt Q9GZQ4 1-415); experiment: displacement of 125I-NMU8 from human TGR1 CHO membrane fraction; IC50 relative to NMU-8;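 further: competitive binding on TGR1-expressing CHO cell membranes, with compounds tested as DMSO dilution series and incubated for 70 min at 25 °C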
T3 construct: whole, on cells; Assayed as the membrane fraction of TGR1-expressing CHO cells (1.1 mg/mL protein); also called NMUR2; TGR1 receptor
T3 sequence (Q9GZQ4 whole entry): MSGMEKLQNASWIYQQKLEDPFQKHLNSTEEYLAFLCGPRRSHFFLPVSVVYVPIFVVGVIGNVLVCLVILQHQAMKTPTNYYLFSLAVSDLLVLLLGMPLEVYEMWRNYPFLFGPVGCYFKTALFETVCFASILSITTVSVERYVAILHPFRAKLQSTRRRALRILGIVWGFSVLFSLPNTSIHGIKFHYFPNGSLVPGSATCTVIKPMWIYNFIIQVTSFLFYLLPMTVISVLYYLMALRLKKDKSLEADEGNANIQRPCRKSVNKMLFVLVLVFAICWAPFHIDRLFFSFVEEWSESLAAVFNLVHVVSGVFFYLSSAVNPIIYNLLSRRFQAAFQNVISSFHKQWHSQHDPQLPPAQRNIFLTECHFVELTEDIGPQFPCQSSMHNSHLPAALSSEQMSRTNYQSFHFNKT
Protocol: 15 mL of homogenized buffer (10 mM NaHCO₃ (pH 7.4), 5 mM EDTA, protease inhibitor=0.5 mM PMSF, 10 μg/mL Pepstatin A, 20 μg/mL Leupeptin, and 4 μg/mL E-64) was added to the obtained cell pellets, the cellular membrane was disrupted using a polytron homogenizer (Kinematica GmbH), centrifugation was conducted for 10 minutes at 1,000 g at 4° C., and the supernatant was collected. This process was further repeated twice, and ultracentrifugation was conducted for 60 minutes at 30,000 rpm at 4° C. Thereafter, 8 mL of homogenized buffer was added to the pellets and suspended homogeneously to prepare a membrane fraction. The protein concentration of the FM3-expressing CHO cellular membrane fraction was 1.2 mg/mL, and the protein concentration of the TGR1-expressing CHO cellular membrane fraction was 1.1 mg/mL.
Specifically, each of the NMU derivatives and PEG conjugates was dissolved in DMSO so as to prepare 2 μL of each dilution series of the NMU derivatives and PEG conjugates. […] The resulting product was thoroughly mixed, and then a reaction was carried out at 25° C. for 70 minutes.

Human FM3 = target: T1, Human FM3; experiment: displacement of 125I-NMU8 from human FM3 CHO membrane fraction; IC50 relative to NMU-8;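 further: binding reaction run for 70 min at 25 °C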
[1] = target: T2, Human FM3 (human), Q9HB89; experiment: as above; conditions: remark: other sources report otherwise

Binder | IC50 ratio (human TGR1) | IC50 ratio (Human FM3) | IC50 ratio (ratio to NMU-8 (=1)) [1]
B1 | 1.9 ratio to NMU-8 (=1) | 900 ratio to NMU-8 (=1) | –
B2 | 11 ratio to NMU-8 (=1) | 1.3 ratio to NMU-8 (=1) | –
B3 | 0.38 ratio to NMU-8 (=1) | 0.07 ratio to NMU-8 (=1) | –
B4 | 0.17 ratio to NMU-8 (=1) | 0.44 ratio to NMU-8 (=1) | –
B5 | 3.9 ratio to NMU-8 (=1) | 0.31 ratio to NMU-8 (=1) | –
B6 | 0.37 ratio to NMU-8 (=1) | 0.43 ratio to NMU-8 (=1) | –
B7 | 3.8 ratio to NMU-8 (=1) | 0.59 ratio to NMU-8 (=1) | –
B8 | 2 ratio to NMU-8 (=1) | 2.4 ratio to NMU-8 (=1) | –
B9 | 3.4 ratio to NMU-8 (=1) | 15 ratio to NMU-8 (=1) | –
{mPEG 30 kDa-βAla}-YFLFRP[Arg(Me)]N-NH2 [PEG30k-NH-β-Ala0,Arg(Me)7-NMU-8 (Compound N)] | 63 ratio to NMU-8 (=1) | 290 ratio to NMU-8 (=1) | –
{mPEG 20 kDa-βAla}-YF[NMeL]FRP[NMeR]N-NH2 [PEG20k-NH-β-Ala0,NMeLeu3,NMeArg7-NMU-8 (Compound O)] | 170 ratio to NMU-8 (=1) | 75 ratio to NMU-8 (=1) | –
{PEG 20 kDa-βAla}-YWLFR[NMeA]RN-NH2 [PEG20k-NH-β-Ala0,Trp2,NMeAla6-NMU-8 (Compound Q)] | 47 ratio to NMU-8 (=1) | 1600 ratio to NMU-8 (=1) | –
{mPEG 30 kDa-βAla}-YFLF[NMeR]PRN-NH2 [PEG30k-NH-β-Ala0,NMeArg5-NMU-8 (Compound M)] | 29 ratio to NMU-8 (=1) | 9 ratio to NMU-8 (=1) | –
{mPEG 20 kDa-βAla}-[NMeY]F[NMeL]F[NMeR]PRN-NH2 [PEG20k-NH-β-Ala0,NMeTyr1,NMeLeu3,NMeArg5-NMU-8 (Compound P)] | 240 ratio to NMU-8 (=1) | 83 ratio to NMU-8 (=1) | –
B10 | 19 ratio to NMU-8 (=1) | 8.6 ratio to NMU-8 (=1) | –
B11 | 0.19 ratio to NMU-8 (=1) | – | 280
B12 | 34 ratio to NMU-8 (=1) | – | 11000
B13 | 9.9 ratio to NMU-8 (=1) | 0.55 ratio to NMU-8 (=1) | –
B14 | 1.7 ratio to NMU-8 (=1) | 99 ratio to NMU-8 (=1) | –
B15 | 3.6 ratio to NMU-8 (=1) | 6.3 ratio to NMU-8 (=1) | –
B16 | 27 ratio to NMU-8 (=1) | 10000 ratio to NMU-8 (=1) | –
